Source: PMC11142274 (bioRxiv, 2024)
Each block holds one binder with its values, some of them ahead of it.

Tests used:
[1] = target: T1, mouse CNPase catalytic domain (mouse, UniProt P16330); assay: ITC
full-length mouse CNPase [2] = target: T2, full-length mouse CNPase (Mus musculus, UniProt P16330); assay: DSF thermal shift
[3] = target: T1, mouse CNPase catalytic domain; assay: SEC-SAXS
[4] = target: T1, mouse CNPase catalytic domain; assay: SEC-SAXS; remark: listed apart in the source
full-length mouse CNPase [5] = target: T2, full-length mouse CNPase; assay: enzyme inhibition kinetics
[6] = target: T3, Tom70-EGFP-CNPase-ALFAtag (Mus musculus (assumed)); assay: co-localisation with a target anchored to mitochondria
T3 chain: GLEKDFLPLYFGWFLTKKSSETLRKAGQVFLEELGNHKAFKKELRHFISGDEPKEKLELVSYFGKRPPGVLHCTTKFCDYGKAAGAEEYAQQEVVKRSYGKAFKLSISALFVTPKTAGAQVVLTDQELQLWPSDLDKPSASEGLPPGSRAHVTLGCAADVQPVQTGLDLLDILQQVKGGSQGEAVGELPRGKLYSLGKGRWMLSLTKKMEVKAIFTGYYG

full-length mouse CNPase [7] = target: T2, full-length mouse CNPase; assay: nanoDSF thermal shift

T2 sequence (P16330 whole entry, the tested form may be a part): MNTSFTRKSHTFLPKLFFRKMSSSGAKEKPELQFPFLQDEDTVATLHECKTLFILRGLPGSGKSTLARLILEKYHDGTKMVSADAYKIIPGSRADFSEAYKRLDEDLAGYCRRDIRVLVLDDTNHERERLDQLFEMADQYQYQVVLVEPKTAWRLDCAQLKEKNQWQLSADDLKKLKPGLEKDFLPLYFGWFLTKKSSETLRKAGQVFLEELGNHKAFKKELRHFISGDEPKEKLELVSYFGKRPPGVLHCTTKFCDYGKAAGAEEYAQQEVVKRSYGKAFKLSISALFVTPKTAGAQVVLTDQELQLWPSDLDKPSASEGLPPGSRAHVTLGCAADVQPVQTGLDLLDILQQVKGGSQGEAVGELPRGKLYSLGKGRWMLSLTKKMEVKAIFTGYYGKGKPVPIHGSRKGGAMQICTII

B1: anti-CNPase nanobody NbCNP 8C (VHH)
VHH: EVQLEESGGGLVQAGGSLTLSCAASGFTFDDYAMGWYRQAPGKERVGVSCISRTDGYTYYLDSVKGRFTISTDHAKHTVYLQMNNLKPDDTGLYYCAADADPEYGSRCPDPYYGMDYWGKGILVTVSS
Kd [1]: 16.6 nM | dH [1]: -29.6 kJ/mol | stoichiometry N [1]: 0.914 | ΔTm of CNPase (full-length mouse CNPase [2]): 9.2 °C | stoichiometry N [3]: 1

B5: anti-CNPase nanobody NbCNP 8D (VHH)
VHH: EVQLEESGGGLVQPGGSLRLSCAASGFTFSSYVMSWVRQAPGKGLEWVSDINSGGSRTYYTDSVKGRFTISRDNAKNTLYLQMNSLKPEDTAVYYCARDSLLSTRYLHTSERGQGTQVTVSS
ΔTm of CNPase (full-length mouse CNPase [2]): 18 °C | ΔTm of CNPase (full-length mouse CNPase [7]): 17.7 °C

B7: anti-CNPase nanobody NbCNP 7E (VHH)
VHH: EVQLEESGGGWVHPGGSLRLSCAASGNVFGVNTMAWYRQAPGKQREQRELVASITDYGTTEYADSVKGRFTISGDNAKATVYLQMNSLKPEDTAVYYCNMDLTVMTATSSLYAYDYWGQGTQVTVSS
Kd [1]: 83.3 nM | dH [1]: -59.2 kJ/mol | stoichiometry N [1]: 0.863 | ΔTm of CNPase (full-length mouse CNPase [2]): 2.1 °C | stoichiometry N [3]: 1

Second part, led by results:

Kd [1]: 9.8 nM | dH [1]: -50.6 kJ/mol | stoichiometry N [1]: 0.804 | stoichiometry N [4]: 2 molecules of CNPase per 10E molecule | Ki (full-length mouse CNPase [5]): 0.604 ± 0.0507 nM
B2: anti-CNPase nanobody NbCNP 10E (VHH)
VHH: EVQLEESGGGLVQPGGSLRLSCAVSGITLDDFGIGWFRQAPGKEREGVACISPGYEHIYYADSAKGRFTISRDNAKNTVYLQMNNLKPWDTGVYYCAADNDLPDRLWGGSDWSDPSPYDYWGQGTQVTVSS
ΔTm of CNPase (full-length mouse CNPase [2]): 4.2 °C

Kd [1]: 13.4 nM | dH [1]: -75.6 kJ/mol | stoichiometry N [1]: 0.836
B3: MaBP-10E (His6-maltose binding protein fusion of NbCNP 10E) (VHH)
VHH: B2 VHH

binding result [6]: binds
B4: iNbCNP 10E fused to mRuby3 (VHH)
VHH: B2 VHH

binding result [6]: binds
B6: iNbCNP 8D fused to mRuby3 (VHH)
VHH: B5 VHH
